Measured values taken from paper PMC7383614, “Computational Design of Enantiocomplementary Epoxide Hydrolases for Asymmetric Synthesis of Aliphatic and Aromatic Diols” (Chembiochem, 2020).
Positions count from the first letter of the chain named. In names and notes the source's numbering stands.

What was measured:
Experiment in all cases: initial velocities of diol formation, Michaelis-Menten fit
Type in all cases: biochemical, Rhodococcus erythropolis
Conditions in all cases: buffer and temperature of kinetics not given (activity assays: 50 mM HEPES pH 8, 30 °C)
[1] = substrate: C[C@@H]1O[C@@H]1C
Text: (§1) initial velocities of diol formation, Michaelis-Menten fit on LEH-P (thermostable limonene epoxide hydrolase)

[2] = substrate: c1ccc([C@H]2O[C@H]2c2ccccc2)cc1
Text: as §1

[3] = substrate: C1CC2OC2C1
Text: as §1

[4] = variant 43A, single measurement, margin from average coefficient of variation

B1: LEH-P (thermostable limonene epoxide hydrolase) (Rhodococcus erythropolis; A19K/E45K/N92K/S15P/T2A/T76K/T85V/Y96F) (protein)
chain: MASKIEQPRWASKDPAAGKASTPDEKIVLEFMDALTSNDAAKLIKYFAEDTMYQNMPLPPAYGRDAVEQTLAGLFKVMSIDAVEVFHIGSSKGLVFTERVDVLRALPTGKSYNLSILGVFQLTEGKITGWRDYFDLREFEEAVDLPLRG
notes: N-terminal hexa-His tag; expressed in E. coli; dimeric
Km [1]: 18000 ± 1000 µM
kcat [1]: 0.056 ± 0.01 s⁻¹
kcat/Km [1]: 3.1 M⁻¹ s⁻¹
Km [2]: 370 ± 20 µM
kcat [2]: 0.147 ± 0.012 s⁻¹
kcat/Km [2]: 406 M⁻¹ s⁻¹
Km [3]: 4200 ± 200 µM
kcat [3]: 0.035 ± 0.004 s⁻¹
kcat/Km [3]: 7.9 M⁻¹ s⁻¹

B2: LEH-P (thermostable limonene epoxide hydrolase) (Rhodococcus erythropolis; A19K/E45K/F139L/I80W/L103V/L35G/M32L/N92K/S15P/T2A/T76K/T85V/Y96F) (protein)
chain: B1 chain with M32L, L35G, I80W, L103V, F139L
notes: as for B1
Km ([2]; variant 60A): 60 ± 10 µM
kcat ([2]; variant 60A): 0.052 ± 0.006 s⁻¹
kcat/Km ([2]; variant 60A): 890 M⁻¹ s⁻¹

B3: LEH-P (thermostable limonene epoxide hydrolase) (Rhodococcus erythropolis; A19K/E45K/F139L/I116V/I80F/L103I/M32A/M78I/N92K/S15P/T2A/T76K/T85V/Y96F) (protein)
chain: B1 chain with M32A, M78I, I80F, L103I, I116V, F139L
notes: as for B1
Km ([3]; variant 24A): 3000 ± 200 µM
kcat ([3]; variant 24A): 0.005 ± 0.001 s⁻¹
kcat/Km ([3]; variant 24A): 1.9 M⁻¹ s⁻¹

B4: LEH-P (thermostable limonene epoxide hydrolase) (Rhodococcus erythropolis; A19K/E45K/F139L/I116F/L103I/L114M/L35M/M32L/N92K/S15P/T2A/T76K/T85V/Y96F) (protein)
chain: B1 chain with M32L, L35M, L103I, L114M, I116F, F139L
notes: as for B1
Km ([2]; variant 41B): 190 ± 20 µM
kcat ([2]; variant 41B): 0.002 ± 0.001 s⁻¹
kcat/Km ([2]; variant 41B): 10.5 M⁻¹ s⁻¹

B5: LEH-P (thermostable limonene epoxide hydrolase) (Rhodococcus erythropolis; A19K/E45K/F134Y/F139W/L103V/L74I/N92K/S15P/T2A/T76K/T85V/Y96F) (protein)
chain: B1 chain with L74I, L103V, F134Y, F139W
notes: as for B1
Km [3, 4]: 35000 ± 4000 µM
kcat [3, 4]: 0.017 ± 0.005 s⁻¹
kcat/Km [3, 4]: 0.48 M⁻¹ s⁻¹

B6: LEH-P (thermostable limonene epoxide hydrolase) (Rhodococcus erythropolis; A19K/E45K/I116F/L103I/L114M/L35M/M32L/M78I/N92K/S15P/T2A/T76K/T85V/Y96F) (protein)
chain: B1 chain with M32L, L35M, M78I, L103I, L114M, I116F
notes: as for B1
Km ([2]; variant 52A): 160 ± 30 µM
kcat ([2]; variant 52A): 0.003 ± 0.001 s⁻¹
kcat/Km ([2]; variant 52A): 19 M⁻¹ s⁻¹
